According to patent US20210002376A1:
Read-outs that look alike come from different tables or passages of the source.

What was measured:
HER3-Fc fusion protein [1] = biological target: HER3-Fc fusion protein (UniProt P21860); assay: ELISA, coated HER3-Fc, anti-human Fab-HRP
HER3-His = HER3-His (UniProt P21860); assay: ELISA, coated His-tagged HER3 ECD, anti-human Fc-HRP
HER3-Fc fusion protein [2] = biological target: HER3-Fc fusion protein (UniProt P21860); assay: ELISA, coated HER3-Fc, anti-human Fab-HRP; remark: listed apart in the source

B1: 3-43-IgG (antibody, from a related filing, V domains shown)
VH: QVQLQQSGPGLVKPSQTLSLTCAISGDSVSSNRAAWNWIRQSPSRGLEWLGRTYYRSKWYNDYAQSLKSRITINPDTPKNQFSLQLNSVTPEDTAVYYCARDGQLGLDALDIWGQGTMVTVSS
VL: QAGLTQPPAVSVAPGQTASITCGRDNIGSRSVHWYQQKPGQAPVLVVYDDSDRPAGIPERFSGSNYENTATLTISRVEAGDEADYYCQVWGITSDHVVFGGGTKLTVLC
EC50 (HER3-Fc fusion protein [1]): 200 pM | EC50 (HER3-His): 230 pM | EC50 (HER3-Fc fusion protein [2]): 210 pM
